Laboratory results published in patent US10005846 (LIFEARC, dated 2018).
Residue numbers refer to the chain shown, from its start. One block for each binder: values may come before it.

Legend:
[1] = biological target: T1, human transglutaminase type 2 (TG2) (human, UniProt P21980 1-687); assay: cell-based or functional assay
T1 sequence: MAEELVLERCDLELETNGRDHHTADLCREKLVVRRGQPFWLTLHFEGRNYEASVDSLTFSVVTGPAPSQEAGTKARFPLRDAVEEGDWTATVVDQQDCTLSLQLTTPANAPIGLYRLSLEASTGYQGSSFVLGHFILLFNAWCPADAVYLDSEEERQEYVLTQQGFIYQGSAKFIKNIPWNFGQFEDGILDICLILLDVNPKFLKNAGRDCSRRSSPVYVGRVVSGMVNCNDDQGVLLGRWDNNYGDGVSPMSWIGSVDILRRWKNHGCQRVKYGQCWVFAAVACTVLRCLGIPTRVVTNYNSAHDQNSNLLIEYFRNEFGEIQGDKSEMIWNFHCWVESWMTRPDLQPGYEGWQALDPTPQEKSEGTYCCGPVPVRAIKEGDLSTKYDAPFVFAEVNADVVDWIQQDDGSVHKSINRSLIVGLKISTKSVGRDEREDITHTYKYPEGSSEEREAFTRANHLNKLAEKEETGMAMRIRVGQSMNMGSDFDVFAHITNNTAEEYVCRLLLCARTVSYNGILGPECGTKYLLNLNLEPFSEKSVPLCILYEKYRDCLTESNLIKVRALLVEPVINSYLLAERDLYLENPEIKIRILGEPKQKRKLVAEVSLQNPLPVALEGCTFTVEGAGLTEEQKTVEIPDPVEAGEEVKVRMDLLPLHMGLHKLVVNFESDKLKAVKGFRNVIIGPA

TG7 = biological target: T2, TG7 (human, UniProt Q96PF1); assay: ELISA, purified IgG at 0.1 ug/ml, plates coated with 100 ng of each TG [panel B]
T2 construct: recombinant, Zedira; also called recombinant human TG7
T2 sequence (enzyme, looked up): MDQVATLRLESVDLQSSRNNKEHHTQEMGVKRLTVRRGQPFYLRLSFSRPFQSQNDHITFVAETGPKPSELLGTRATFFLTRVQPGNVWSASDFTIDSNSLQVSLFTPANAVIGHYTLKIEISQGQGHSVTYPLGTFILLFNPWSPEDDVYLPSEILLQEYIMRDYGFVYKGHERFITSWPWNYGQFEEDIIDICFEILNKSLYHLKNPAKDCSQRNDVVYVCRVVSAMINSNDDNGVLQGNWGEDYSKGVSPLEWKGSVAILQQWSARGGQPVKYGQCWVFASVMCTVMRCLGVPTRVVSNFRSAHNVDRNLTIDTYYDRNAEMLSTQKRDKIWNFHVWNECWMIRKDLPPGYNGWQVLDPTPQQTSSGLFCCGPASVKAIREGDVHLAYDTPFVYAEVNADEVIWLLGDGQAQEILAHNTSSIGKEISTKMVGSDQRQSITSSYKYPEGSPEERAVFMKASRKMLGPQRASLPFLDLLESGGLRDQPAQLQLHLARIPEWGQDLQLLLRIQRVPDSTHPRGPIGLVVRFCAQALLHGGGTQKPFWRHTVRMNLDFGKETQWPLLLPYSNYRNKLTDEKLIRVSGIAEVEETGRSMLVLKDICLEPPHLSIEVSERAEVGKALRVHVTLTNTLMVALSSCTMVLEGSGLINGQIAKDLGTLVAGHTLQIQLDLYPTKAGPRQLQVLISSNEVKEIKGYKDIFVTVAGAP
Description: Conditioned medium or purified IgG were tested for reactivity to transglutaminase family members. The ability of each to bind to each transglutaminase (TG1, TG2, TG3, TG5, TG7 and Factor XIIIa; all Zedira) was determined using a plate binding assay. Microtiter plates (Costar, Cambridge, UK) were coated with recombinant TG (Zedira, Darmstadt, Germany) in 50 μl of 0.1 M bicarbonate/carbonate buffer (pH 9.6) overnight at 4° C. Plates were blocked for 2 h at 37° C. with 200 μl PBS containing 3% w/v BSA. Plates were washed three times with PBS containing 0.05% Tween 20 (washing buffer) and 100 μl of diluted conditioned medium (dilution 1:5 to 1:20) or purified anti-TG2 catalytic core mAbs was added. Plates were incubated for a further 1 h at room temperature. The washing step was repeated and anti-mouse gamma chain-horseradish peroxidase (1:5000) in PBS containing 0.05% Tween 20 (v:v) and 1% BSA (w:v) (Sigma, Poole UK) was added for 1 h. […] The reaction was stopped by adding 25 μl of 0.1 M H_2SO_4 and the absorbance at 450 nm was determined.

mouse TG2 = biological target: T3, mouse TG2 (mouse, UniProt P21981 1-686, limits assumed); assay: western blot and ELISA
T3 sequence: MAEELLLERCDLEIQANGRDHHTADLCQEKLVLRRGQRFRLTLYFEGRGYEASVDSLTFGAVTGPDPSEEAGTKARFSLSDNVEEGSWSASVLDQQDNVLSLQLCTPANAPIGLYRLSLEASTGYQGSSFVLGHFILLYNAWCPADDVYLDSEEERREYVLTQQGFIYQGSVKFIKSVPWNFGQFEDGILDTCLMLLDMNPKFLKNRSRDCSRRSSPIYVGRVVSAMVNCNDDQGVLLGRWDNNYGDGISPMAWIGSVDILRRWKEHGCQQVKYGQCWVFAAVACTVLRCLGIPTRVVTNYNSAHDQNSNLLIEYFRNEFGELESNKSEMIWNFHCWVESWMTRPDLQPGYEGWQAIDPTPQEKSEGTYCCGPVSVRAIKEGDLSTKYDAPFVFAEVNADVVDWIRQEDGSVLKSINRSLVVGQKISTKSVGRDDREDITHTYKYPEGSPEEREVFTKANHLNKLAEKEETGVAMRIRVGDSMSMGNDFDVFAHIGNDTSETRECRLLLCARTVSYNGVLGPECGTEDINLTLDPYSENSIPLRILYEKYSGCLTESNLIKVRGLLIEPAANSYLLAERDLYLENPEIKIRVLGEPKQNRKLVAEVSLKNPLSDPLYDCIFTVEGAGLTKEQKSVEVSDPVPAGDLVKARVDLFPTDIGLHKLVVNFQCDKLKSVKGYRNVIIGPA

B1: AG9 murine monoclonal antibody (antibody, V domains shown)
VH: EVQLQQSGPELVKPGASVKMSCRASGYTFTTYVIHWVKQKPGQGLEWIGYINPYNDGARYNEKFKGKATLTSDKSSTTAYMELSSLTSEDSAVYYCARLSSDYWGQGTTLTVSS
VL: DVLMTQNPLSLPVSLGDQASISCRSSRSIEHSNGNTYLEWYLQKPGQSPKFLIYKVSNRFSGVPDRFSGSGSGTDFTLRISSVEAEDLGVYYCFQGSHVPFTFGGGTKLEIK
notes: Mouse hybridoma IgG; heavy chain amplified with primer MHCG1, kappa light chain
IC50 of TG2 activity, 3H putrescine incorporation [1]: 4.87e-05 mg/ml IgG per ng TG2
binding result (TG7): no binding (tested: 0.1 ug/ml)

B5: AB1 murine monoclonal antibody (antibody, V domains shown)
VH: EVQLVESGGGLVKPGGSLKLSCAASGFTLSSSAMSWVRQTPDRRLEWVATISVGGGKTYYPDSVKGRFTISRDNAKNTLYLQMNSLRSEDTAMYYCAKLISLYWGQGTTLTVSS
VL: DIKMTQSPSSMYASLGERVTITCKASQDINSYLTWFQQKPGKSPKTLIYRTNRLFDGVPSRFSGSGSGQDFFLTISSLEYEDMGIYYCLQYDDFPYTFGGGTKLEIK
notes: Mouse hybridoma IgG; heavy chain amplified with constant region primer MHCG1, kappa light chain; also called mAB003
IC50 of TG2 activity, 3H putrescine incorporation [1]: 1.09e-05 mg/ml IgG per ng TG2
binding result (TG7): no binding (tested: 0.1 ug/ml)

B8: DH2 murine monoclonal antibody (antibody, V domains shown)
VH: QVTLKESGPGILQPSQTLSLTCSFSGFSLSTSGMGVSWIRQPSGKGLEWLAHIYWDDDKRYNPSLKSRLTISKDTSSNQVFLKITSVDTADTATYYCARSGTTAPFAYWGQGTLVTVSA
VL: QIVLTQSPAIMSASPGEKVTMTCSASSSVSYMYWYQQKPGSSPRLLIYDTSNLASGVPVRFSGSGSGTSYSLTISRMEAEDAATFYCQQWSSSPLTFGAGTKLELK
notes: Mouse hybridoma IgG; heavy chain amplified with primer MHCG2B, kappa light chain; also called mDH001
binding result (mouse TG2): binds
IC50 of TG2 activity, 3H putrescine incorporation [1]: 6.7e-05 mg/ml IgG per ng TG2
binding result (TG7): no binding (tested: 0.1 ug/ml)

B9: DD9 murine monoclonal antibody (antibody, V domains shown)
VH: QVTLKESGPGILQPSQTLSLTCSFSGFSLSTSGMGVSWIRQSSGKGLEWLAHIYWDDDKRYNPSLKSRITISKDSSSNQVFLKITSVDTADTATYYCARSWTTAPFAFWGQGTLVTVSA
VL: B8 VL with S30D, E78G, F85Y, S91N
notes: Mouse hybridoma IgG; heavy chain amplified with primer MHCG2A, kappa light chain; also called mDD9001
binding result (mouse TG2): binds
IC50 of TG2 activity, 3H putrescine incorporation [1]: 5.24e-05 mg/ml IgG per ng TG2
binding result (TG7): no binding (tested: 0.1 ug/ml)

Continued, values first:

IC50 of TG2 activity, 3H putrescine incorporation [1]: 7.8e-05 mg/ml IgG per ng TG2
binding result (TG7): no binding (tested: 0.1 ug/ml)
B2: AH3 murine monoclonal antibody (antibody, V domains shown)
VH: B1 VH
VL: B1 VL
notes: Mouse hybridoma IgG; heavy chain amplified with primer MHCG2B, kappa light chain

binding result (mouse TG2): binds
IC50 of TG2 activity, 3H putrescine incorporation [1]: 6.9e-05 mg/ml IgG per ng TG2
binding result (TG7): no binding (tested: 0.1 ug/ml)
B3: EH6 murine monoclonal antibody (antibody, V domains shown)
VH: B1 VH with R23K, T31S, I34M, Y50F, A58T, R59K, S75A, L99F, D102G
VL: B1 VL with N7T, R27Q, E30V, F51L, R79K, S82R, E84G, F94L, G96V, G105S
notes: as for B2

binding result (mouse TG2): binds
binding result (TG7): no binding (tested: 0.1 ug/ml)
B4: JE12 murine monoclonal antibody (antibody, V domains shown)
VH: B1 VH with R23K, T28R, T31S, I34M, P41S, R59K, T77S
VL: B1 VL with R27Q, S32I, S82R, V90I
notes: as for B1

binding result (mouse TG2): binds
IC50 of TG2 activity, 3H putrescine incorporation [1]: 1.59e-05 mg/ml IgG per ng TG2
B6: BB7 murine monoclonal antibody (antibody, V domains shown)
VH: AVQLVESGGGLVKPGGSLKLSCAASGIIFSSSAMSWVRQTPEKRLEWVATISSGGRSTYYPDSVKGRFTVSRDSAKNTLYLQMDSLRSEDTAIYYCAKLISPYWGQGTTLTVSS
VL: B5 VL with D1A, T20I, R50L, F55M, D70E, F72L, S77G, Y80H, D92V
notes: Mouse hybridoma IgG; heavy chain amplified with primer MHCG1, kappa light chain; also called mBB001

binding result (mouse TG2): binds
IC50 of TG2 activity, 3H putrescine incorporation [1]: 1.23e-05 mg/ml IgG per ng TG2
binding result (TG7): no binding (tested: 0.1 ug/ml)
B7: DC1 murine monoclonal antibody (antibody, V domains shown)
VH: EVQLVESGGGLVKPGGSLKLSCAASGFTLSTHAMSWVRQTPEKRLEWVATISSGGRSTYYPDSVKGRFTISRDNVKNTLYLQLSSLRSEDTAVYFCARLISTYWGQGTTLTVSS
VL: B5 VL with K3T, M11I, T46I, R50L, T51V, F55V, F71Y, F72A
notes: Mouse hybridoma IgG; heavy chain amplified with primer MHCG1, kappa light chain; also called mDC001
